Experimental data published in patent publication US20220195388A1.
Values belong to the substance of their own block, whether it stands above or below them.

Columns and labels:
[1] = molecular target: CD3 (TCR/CD3 complex) on the surface of Jurkat cells, PBMCs and T responder cells (UniProt P07766); experiment: flow cytometry, freshly isolated PBMCs stained with PE-labeled OKT3 Fab-multimers, before D-biotin; only live (PI negative) cells shown
[2] = molecular target: CD3 (TCR/CD3 complex) on the surface of Jurkat cells, PBMCs and T responder cells (UniProt P07766); experiment: flow cytometry, second staining with PE-labeled OKT3 Fab-multimers of PBMCs that had been stained, treated with D-biotin and washed (control); live cells
[3] = molecular target: CD3 (TCR/CD3 complex) on the surface of Jurkat cells, PBMCs and T responder cells (UniProt P07766); experiment: flow cytometry, PBMCs stained with PE-labeled OKT3 Fab-multimers and then treated with D-biotin, which disrupts the Fab to Strep-Tactin bond; remaining PE signal on live cells
[4] = molecular target: CD28 on the surface of PBMCs and T cells (human) (UniProt P10747); experiment: flow cytometry, selected CD28+ cells after D-biotin and washing, stained with an α-Ig kappa light chain mAb to detect remaining Fab monomers; live CD3+ cells. The same mAb on cells before selection (negative control, no Fab) gives 2.73 in the gate.
[5] = molecular target: CD28 on the surface of PBMCs and T cells (human) (UniProt P10747); experiment: flow cytometry, CD28+ cells isolated by Fab-multimer magnetic selection, released with D-biotin, washed and stained again with CD28 Fab-multimers; live CD3+ cells
[6] = molecular target: CD28 on the surface of PBMCs and T cells (human) (UniProt P10747); experiment: flow cytometry, freshly isolated PBMCs before selection stained with fluorescent αCD28 Fab-multimers; only live (PI negative) CD3+ cells shown

Sequence of CD3 (TCR/CD3 complex) on the surface of Jurkat cells, PBMCs and T responder cells (P07766 23-207, one chain of several): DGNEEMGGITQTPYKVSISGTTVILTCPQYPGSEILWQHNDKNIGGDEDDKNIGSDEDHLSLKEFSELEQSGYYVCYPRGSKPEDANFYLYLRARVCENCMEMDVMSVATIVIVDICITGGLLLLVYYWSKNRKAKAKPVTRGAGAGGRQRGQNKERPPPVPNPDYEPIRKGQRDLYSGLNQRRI

- percentage of cells within gate [1]: 64.5%
- percentage of cells within gate [2]: 64.7%
- percentage of cells within gate [3]: 0.005%
Substance: OKT3 Fab fragments multimerized with Strep-Tactin

- percentage of cells within gate [4]: 5.91%
Substance: αCD28 Fab fragment derived from the monoclonal anti-human CD28 antibody CD28.3, heavy chain C-terminally fused to the Twin-Strep-tag (monomeric)

- percentage of cells within gate [5]: 96.7%
- percentage of cells within gate [6]: 77.9%
Substance: anti-CD28 Fab fragments (from CD28.3) multimerized with Strep-Tactin (from UniProt P22629 38-163)
